This experiment has as its target T1, full-length PTX3 (#1826-TS; R&D Systems) (UniProt P26022 18-381).
T1 construct: bought protein; source: bought: R&D Systems (#1826-TS)
As to the kind of experiment: SPR; BIAcore 3000; full-length PTX3 amine-coupled to a CM5 chip (4000-6000 RU); N-terminal CD44 as analyte; PBS pH 7.2, 10 μl/min, 1 min association, 2 min dissociation; 1:1 Langmuir model. The settings on record: both partners purified. Background: SPR reads the build-up and loss of mass on a sensor chip optically.

Broadly, the Kd is the free concentration of one partner at which half of the binding sites on the other are occupied at equilibrium, for simple one-to-one binding. Usually koff stands for a measure of how fast the partners let go of each other. Read a high koff as fast dissociation. As a reminder, the kon is a measure of how fast the partners come together.

T1 sequence (P26022 18-381): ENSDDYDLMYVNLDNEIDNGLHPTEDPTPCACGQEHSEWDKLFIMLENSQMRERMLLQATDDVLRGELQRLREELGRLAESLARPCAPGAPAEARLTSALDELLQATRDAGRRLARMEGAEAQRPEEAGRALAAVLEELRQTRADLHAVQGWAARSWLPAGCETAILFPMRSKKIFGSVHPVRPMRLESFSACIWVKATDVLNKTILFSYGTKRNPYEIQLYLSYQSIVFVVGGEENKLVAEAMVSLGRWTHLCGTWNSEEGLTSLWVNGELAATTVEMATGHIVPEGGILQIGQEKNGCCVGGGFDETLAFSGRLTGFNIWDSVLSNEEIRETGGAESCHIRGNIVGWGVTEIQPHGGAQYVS

B1: N-terminal of CD44 (#CD44-3961H; Creative Biomart) (domain or fragment)
chain: QIDLNITCRFAGVFHVEKNGRYSISRTEAADLCKAFNSTLPTMAQMEKALSIGFETCRYGFIEGHVVIPRIHPNSICAANNTGVYILTSNTSQYDTYCFNASAPPEEDCTSVTDLPNAFDGPITITIVNRDGTRYVQKGEYRTNPEDIYPSNPTDDDV
modifications: Bought protein with limits not printed. Limits are the conventional N-terminal hyaluronan-binding domain (Link domain plus flanks, mature start 21 to 178). This range covers the predicted PTX3 …
Consider B1, for which binding was characterised by a dissociation constant (Kd) of 21 nM, the koff amounted to 2.43e-06 s⁻¹ and the kon turned out to be 130 M⁻¹ s⁻¹.

(Values after PMC8797470, “Disruption of the pentraxin 3/CD44 interaction as an efficient therapy for triple‐negative breast cancers” (Clinical and Translational Medicine, 2022).)
